Laboratory results from paper PMC1950596.
One block for each substance: values may come before it.

Assays:
[1] = target: Psu (polarity suppression protein), wild type, non-His-tagged (bacteriophage P4) (UniProt P05460); assay: SEC
[2] = target: Psu (polarity suppression protein), wild type, non-His-tagged (bacteriophage P4) (UniProt P05460); assay: cross-linking
[3] = target: Psu M6 mutant (P169V) (bacteriophage P4) (UniProt P05460); assay: cross-linking
[4] = target: Δ-CTD10 Psu, His-tagged (pRS459, pET28b) (bacteriophage P4) (UniProt P05460); assay: cross-linking

stoichiometry N [1]: 3
stoichiometry N [2]: 2
Substance: Psu (polarity suppression protein), wild type, non-His-tagged (from UniProt P05460 1-190) (natural protein)

stoichiometry N [3]: 2
Substance: Psu M6 mutant (P169V) (from UniProt P05460 1-190) (natural protein)

stoichiometry N [4]: 2
Substance: Δ-CTD10 Psu, His-tagged (pRS459, pET28b) (from UniProt P05460 1-180) (domain or fragment)
